Results on four proteins are retold here after US7115410.

Data set [1] deals with MBP-C125 (maltose-binding protein fused to the last 125 amino acids of APP), P05067.
Data set [2] concerns the target MBP-C125sw (maltose-binding protein fused to the last 125 amino acids of APP, Swedish double mutation) [MBP: P0AEX9].
The target of data set [3] is APP 751 wild type (expressed from pohCK751), P05067.
Data set [4] concerns the target APP 751 with the Swedish mutation (APPsw), P05067.
The target of data set [5] is T1, P26-P4′sw substrate ((biotin)CGGADRGLTTRPGSGLTNIKTEEISEVNLDAEF) (not fully specified).
T1 chain: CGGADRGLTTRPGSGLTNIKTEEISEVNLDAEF

Sequence of MBP-C125 (maltose-binding protein fused to the last 125 amino acids of APP), P05067 (P05067 whole entry, looked up, the tested form may be a part): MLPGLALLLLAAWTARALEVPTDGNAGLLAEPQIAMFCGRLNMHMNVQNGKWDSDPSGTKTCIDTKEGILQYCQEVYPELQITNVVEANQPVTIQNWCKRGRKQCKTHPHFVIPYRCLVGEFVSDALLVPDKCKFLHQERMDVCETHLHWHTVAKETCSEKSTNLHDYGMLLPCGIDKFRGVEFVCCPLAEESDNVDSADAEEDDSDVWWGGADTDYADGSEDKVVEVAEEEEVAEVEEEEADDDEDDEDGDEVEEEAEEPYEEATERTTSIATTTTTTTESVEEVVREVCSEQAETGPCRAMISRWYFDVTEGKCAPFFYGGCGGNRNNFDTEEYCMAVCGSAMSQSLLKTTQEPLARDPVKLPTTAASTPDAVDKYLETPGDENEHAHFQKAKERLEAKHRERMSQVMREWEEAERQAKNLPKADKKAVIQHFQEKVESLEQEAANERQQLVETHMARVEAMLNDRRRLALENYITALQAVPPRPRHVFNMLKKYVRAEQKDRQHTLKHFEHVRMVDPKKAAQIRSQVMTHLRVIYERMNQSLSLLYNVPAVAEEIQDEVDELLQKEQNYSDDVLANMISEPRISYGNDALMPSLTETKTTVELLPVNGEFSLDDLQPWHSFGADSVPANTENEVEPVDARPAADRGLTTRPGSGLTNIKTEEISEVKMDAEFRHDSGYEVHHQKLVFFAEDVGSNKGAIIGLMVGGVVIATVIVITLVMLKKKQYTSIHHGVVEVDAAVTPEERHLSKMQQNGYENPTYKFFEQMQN
Sequence of APP 751 with the Swedish mutation (APPsw), P05067 (P05067 whole entry, looked up, change not shown): as the sequence (P05067 whole entry, looked up, the tested form may be a part) above
Sequence of APP 751 wild type (expressed from pohCK751), P05067 (P05067 whole entry, looked up): as the sequence (P05067 whole entry, looked up, the tested form may be a part) above

B1: FLp501 (full length recombinant β-secretase having a C-terminal flag sequence) (protein)
chain: TQHGIRLPLRSGLGGAPLGLRLPRETDEEPEEPGRRGSFVEMVDNLRGKSGQGYYVEMTVGSPPQTLNILVDTGSSNFAVGAAPHPFLHRYYQRQLSSTYRDLRKGVYVPYTQGKWEGELGTDLVSIPHGPNVTVRANIAAITESDKFFINGSNWEGILGLAYAEIARPDDSLEPFFDSLVKQTHVPNLFSLQLCGAGFPLNQSEVLASVGGSMIIGGIDHSLYTGSLWYTPIRREWYYEVIIVRVEINGQDLKMDCKEYNYDKSIVDSGTTNLRLPKKVFEAAVKSIKAASSTEKFPDGFWLGEQLVCWQAGTTPWNIFPVISLYLMGEVTNQSFRITILPQQYLRPVEDVATSQDDCYKFAISQSSTGTVMGAVIMEGFYVVFDRARKRIGFAVSACHVHDEFRTAAVEGPFVTLDMEDCGYNIPQTDESTLMTIAYVMAAICALFMLPLCLMVCQWRCLRCLRQQHDDFADDISLLKDYKDDDDK
Turning to B1, the cleavage of substrate result in data set [1] is recorded as “Both enzymes exhibited activity in cleaving β-secretase substrates such as MBP-C125”.

B2: β-secretase purified from human brain (naturally occurring) (protein)
chain: ETDEEPEEPGRRGSFVEMVDNLRGKSGQGYYVEMTVGSPPQTLNILVDTGSSNFAVGAAPHPFLHRYYQRQLSSTYRDLRKGVYVPYTQGKWEGELGTDLVSIPHGPNVTVRANIAAITESDKFFINGSNWEGILGLAYAEIARPDDSLEPFFDSLVKQTHVPNLFSLQLCGAGFPLNQSEVLASVGGSMIIGGIDHSLYTGSLWYTPIRREWYYEVIIVRVEINGQDLKMDCKEYNYDKSIVDSGTTNLRLPKKVFEAAVKSIKAASSTEKFPDGFWLGEQLVCWQAGTTPWNIFPVISLYLMGEVTNQSFRITILPQQYLRPVEDVATSQDDCYKFAISQSSTGTVMGAVIMEGFYVVFDRARKRIGFAVSACHVHDEFRTAAVEGPFVTLDMEDCGYNIPQTDESTLMTIAYVMAAICALFMLPLCLMVCQWRCLRCLRQQHDDFADDISLLK
In data set [2], B2 had a Specific Activity (MBP-C125sw assay), Affinity Eluate (nM/h/µg prot.) of 258000 and a Specific Activity (MBP-C125sw assay), Anion Exchange Pool (nM/h/µg prot.) of 1.49e+06.

B3: full length β-secretase (clone 27; 1-501) (protein)
chain: TQHGIRLPLRSGLGGAPLGLRLPRETDEEPEEPGRRGSFVEMVDNLRGKSGQGYYVEMTVGSPPQTLNILVDTGSSNFAVGAAPHPFLHRYYQRQLSSTYRDLRKGVYVPYTQGKWEGELGTDLVSIPHGPNVTVRANIAAITESDKFFINGSNWEGILGLAYAEIARPDDSLEPFFDSLVKQTHVPNLFSLQLCGAGFPLNQSEVLASVGGSMIIGGIDHSLYTGSLWYTPIRREWYYEVIIVRVEINGQDLKMDCKEYNYDKSIVDSGTTNLRLPKKVFEAAVKSIKAASSTEKFPDGFWLGEQLVCWQAGTTPWNIFPVISLYLMGEVTNQSFRITILPQQYLRPVEDVATSQDDCYKFAISQSSTGTVMGAVIMEGFYVVFDRARKRIGFAVSACHVHDEFRTAAVEGPFVTLDMEDCGYNIPQTDESTLMTIAYVMAAICALFMLPLCLMVCQWRCLRCLRQQHDDFADDISLLK
Turning to B3, the “Aβ(x-40) production (ELISA of conditioned media)” value in data set [3] is listed as “approximately 8-fold increase in Aβ(x-40) production”; in data set [4], “approximate 2-fold increase in Aβ(x-40)”.

B4: 452stop (recombinant β-secretase extending from position 1 to 452) (protein)
chain: TQHGIRLPLRSGLGGAPLGLRLPRETDEEPEEPGRRGSFVEMVDNLRGKSGQGYYVEMTVGSPPQTLNILVDTGSSNFAVGAAPHPFLHRYYQRQLSSTYRDLRKGVYVPYTQGKWEGELGTDLVSIPHGPNVTVRANIAAITESDKFFINGSNWEGILGLAYAEIARPDDSLEPFFDSLVKQTHVPNLFSLQLCGAGFPLNQSEVLASVGGSMIIGGIDHSLYTGSLWYTPIRREWYYEVIIVRVEINGQDLKMDCKEYNYDKSIVDSGTTNLRLPKKVFEAAVKSIKAASSTEKFPDGFWLGEQLVCWQAGTTPWNIFPVISLYLMGEVTNQSFRITILPQQYLRPVEDVATSQDDCYKFAISQSSTGTVMGAVIMEGFYVVFDRARKRIGFAVSACHVHDEFRTAAVEGPFVTLDMEDCGYNIPQTDEDYKDDDDK
As to B4, the cleavage of substrate result is listed as “exhibited activity in cleaving the MBP-C125sw substrate” in data set [2], “exhibited activity in cleaving the MBP-C125sw substrate as well as the P26-P4′ substrate” in data set [5] and “Both enzymes exhibited activity in cleaving β-secretase substrates such as MBP-C125” in data set [1].
